This data set can be described thus: protein stability index of a GFP-peptide fusion (GPS, HEK-293T) (PSI 1-6); higher = more stable.
[1] abbreviates: treatment: DMSO, c terminus: a fixed tail appended.
[2] abbreviates: treatment: MLN4924 1 uM, 8 h, c terminus: a fixed tail appended.

72 sequences from the supplement of paper PMC10567573 can be followed below.

± gives the standard deviation.
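Also: 24-mer peptide tiles fused after GFP, lentivirally expressed, FACS-sorted into six equal bins by GFP/DsRed ratio, decoded by Illumina sequencing, PSI is the read-weighted mean bin number.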

With EASSSPPEGSQDRNTSWGVVQEPP [TLE6], the protein stability index by setting is: under setting [1], 5.12 ± 0.28; under setting [2], 5.2 ± 0.18.
For TMKESLTTREIRRQEAIYEMSRGE [NET1] the same measures were 4.46 ± 0.26 and 4.68 ± 0.33.
In the same order, the values of EILEQQQQERNDTNFHGVCMFCNE [ZNF277] are 3.73 ± 0.37 and 3.77 ± 0.43.
In the same order, the values of LPGPAFESYESMELACPAERSGHV [KLHDC2] are 4.41 ± 0.17 and 4.45 ± 0.33.
Take SGLEKEVQRLTSRAARDYKIQNHG [FCHSD1]: the protein stability index runs as follows: under setting [1], 3.89 ± 0.16; under setting [2], 3.61 ± 0.38.
Regarding SARIGQNCSIGPNVSLGPGVVVED [GMPPB], the protein stability index amounted to 4.49 ± 0.33 under setting [1] and 4.58 ± 0.23 under setting [2].
In the same order, the values of IPPMAQPGLPPVPGAPGMPPGIPP [ZNF207] are 4.29 ± 0.24 and 4.4 ± 0.35.
For YSCQSKEILRYMKEFTLLLSAANV [P2RY14] the same measures were 2.4 ± 0.45 and 2.26 ± 0.31.
In the case of NILPNTQKVTCFYQPAPYFAAEAR [TENT5D], the protein stability index by setting is: under setting [1], 2.49 ± 0.32; under setting [2], 2.59 ± 0.23.
For LEEQGATWRHRETLIIAVLVSASI [FATE1] the same measures were 2.77 ± 0.49 and 2.7 ± 0.44.
In the same order, the values of RNTLNQPCSGSVSLQPRRSIAFRL [GMCL1] are 2.41 ± 0.29 and 2.36 ± 0.11.
In the same order, the values of PENQEYFEKHRWPPVWYLKEEDHY [RHOBTB2] are 3.42 ± 0.23 and 3.57 ± 0.41.
CTQLGSLSALKHAVLGLYLLVFLI [SCARA5]: the protein stability index was found to be 2.16 ± 0.24 under setting [1] and 2.05 ± 0.23 under setting [2].
For YPVTIGGKIVGSLCAIAGVLTIAL [KCNA1] the same measures were 2.35 ± 0.21 and 2.23 ± 0.16.
For the sequence MAMAVMLYYSNFVLALEERFGVRP [MFSD9], the protein stability index was 3.3 ± 0.47 under setting [1] and 3.41 ± 0.49 under setting [2].
Regarding HVKETQPPETVQNWIELLSGETWN [GOLPH3], the protein stability index was found to be 3.67 ± 0.36 under setting [1] and 3.86 ± 0.41 under setting [2].
In the same order, the values of CAIASGSELSESAFGYFITACAVI [SLC29A1] are 3.37 ± 0.67 and 3.12 ± 0.34.
For LKFDMKYMNFRVKACNKAVAGEFS [FSD1] the same measures were 2.34 ± 0.26 and 2.17 ± 0.2.
As to KAAGSVSKSTQFEYAWCLVRSKYN [FIS1], the protein stability index under setting [1] stood at 2.24 ± 0.57 and the protein stability index under setting [2] was determined as 2.17 ± 0.37.
In the same order, the values of AISVVGVSAGGHTLSRPPPAQVPR [TFE3] are 3.38 ± 0.24 and 3.35 ± 0.24.
In the same order, the values of AECALNERGVEGDFLIRDSESSPS [NCK2] are 5.42 ± 0.33 and 5.48 ± 0.2.
As to RVRFGQQKRYQDWFQRQYLSTPDS [INTS3], the protein stability index stood at 2.85 ± 0.23 under setting [1] and 3.07 ± 0.14 under setting [2].
Consider PFIVTLEGNALQGPILQKDYVQLE [ZNF449], for which the protein stability index worked out at 2.46 ± 0.18 under setting [1] and 2.59 ± 0.31 under setting [2].
For GNTVPAVEPGTPPLDILAQPLEAS [DNAAF3] the same measures were 5.19 ± 0.18 and 5.03 ± 0.29.
In the same order, the values of AHHRSGAQVFPESPESESDHEHEE [GNAS] are 5.63 ± 0.24 and 5.54 ± 0.26.
For PFGILSPNVLCSMSGKSPVESSLN [FBXO34] the same measures were 2.88 ± 0.33 and 2.64 ± 0.37.
As to SNCLGIRDFAETHNCVDLMQAAEV [KLHL12], the protein stability index stood at 4.05 ± 0.64 under setting [1] and 3.68 ± 0.59 under setting [2].
Turning to GGDAGHAPFPPPPAADGARAPRSP [C6orf223], the protein stability index runs as follows: under setting [1], 5.39 ± 0.28; under setting [2], 5.5 ± 0.27.
In the same order, the values of VLALGLRTDVGITHQHWQQFEPQL [RSAD1] are 2.23 ± 0.39 and 2.35 ± 0.21.
In the same order, the values of GLKLIQIQDNGTGIRKEDLDIVCE [MLH1] are 3.56 ± 0.37 and 3.87 ± 0.75.
For GTKLIFRRRPRQKEAGLSQSHDDL [C2CD2L] the same measures were 4.03 ± 0.46 and 4.04 ± 0.3.
For the sequence SDSVIMTGSYNNFFRMFDRNTKRD [PPP2R2B], the protein stability index was 3.55 ± 0.18 under setting [1] and 3.63 ± 0.19 under setting [2].
In the same order, the values of LEAIRKQDLVELYLTNCEKLSAKS [ZER1] are 3.06 ± 0.21 and 3.11 ± 0.36.
In the same order, the values of RHQSIFKSNGFFHGISIPEPEDME [CDKL4] are 3.58 ± 0.27 and 3.87 ± 0.15.
For the sequence VDNSCDWALGVCNNSWIRKNSTMV [TRIM43], the protein stability index under setting [1] turned out to be 2.49 ± 0.34 and the protein stability index under setting [2] worked out at 2.5 ± 0.44.
ERLQLEYVDVVFANRPDPNTPMEE [KCNAB2]: the protein stability index under setting [1] turned out to be 4.7 ± 0.23 and the protein stability index under setting [2] is 4.75 ± 0.33.
For the sequence CLVFELLSYNLYDLLRNTHFRGVS [DYRK1B], the protein stability index is, setting by setting: under setting [1], 2.95 ± 0.3; under setting [2], 3.3 ± 0.16.
In the same order, the values of KVVKSAQHYTETALDEIKLLKCVR [SRPK2] are 2.72 ± 0.32 and 2.68 ± 0.21.
In the same order, the values of LRETKRKYESVLQLGRALTAHLYS [ARFIP2] are 2.3 ± 0.5 and 2.15 ± 0.32.
For LYSMECAFHPLFSLTSGACRLDYR [TCF25] the same measures were 2.25 ± 0.72 and 2.38 ± 0.71.
For the sequence SLGGIRACTLTVFPPEETTPSPSR [KLHL13], the protein stability index worked out at 3.63 ± 0.21 under setting [1] and 3.77 ± 0.17 under setting [2].
For INYCALNKPGCEHECVNMEESYYC [MATN2] the same measures were 3.26 ± 0.7 and 3.28 ± 0.64.
In the same order, the values of AGEGRLGHKRKQPLPKRVAKVPRP [FOXJ1] are 4.53 ± 0.45 and 4.36 ± 0.43.
For DKNISPRENILVSLGAVGEGFHNY [SCD] the same measures were 3.23 ± 0.49 and 3.18 ± 0.24.
For the sequence VFVGNQLIPQPLDSEEDEKMEEDI [PCMTD1], the protein stability index is 4.99 ± 0.2 under setting [1] and 5.07 ± 0.22 under setting [2].
Take APAPAPASSGQHHDFLSDLFSDDY [CEBPB]: the protein stability index was 5.13 ± 0.29 under setting [1] and 5.14 ± 0.16 under setting [2].
On to ASSPGNPTALANGTVQAPKQKGD [LPCAT4], for which the protein stability index came out at 5.31 ± 0.21 (treatment: DMSO, c terminus: native) and 5.22 ± 0.35 (treatment: MLN4924 1 uM, 8 h, c terminus: native).
For IFSFLPAPDRLRASASCSHWRECL [FBXO33], the protein stability index amounted to 2.41 ± 0.28 under setting [1] and 2.07 ± 0.38 under setting [2].
For GPADCSPPHPAPAPQHPAASALRT [DYRK1B] the same measures were 4.81 ± 0.24 and 4.92 ± 0.15.
In the same order, the values of EEKSFWEMEKSFREEEKTFWKKYR [CCDC70] are 4.18 ± 0.68 and 4.232 ± 0.013.
As for DHMVRMHLYPADFRFDKPKKSRSP [ZNF511], the protein stability index runs as follows: under setting [1], 3.42 ± 0.38; under setting [2], 3.77 ± 0.43.
For the sequence ALIDRPAPYFERSSSKRYTMSRSL [EPB41L3], the protein stability index runs as follows: under setting [1], 2.8 ± 0.31; under setting [2], 3.12 ± 0.58.
In the case of TSHRRVTDVRGLEEFLSAMQSARG [PLEKHN1], the protein stability index by setting is: under setting [1], 3.33 ± 0.31; under setting [2], 3.42 ± 0.26.
For the sequence KYMPHLCQDSSGEVSCQCQLHPPR, the protein stability index under setting [1] was 2.76 ± 0.58 and the protein stability index under setting [2] worked out at 3.6 ± 0.9.
Take SEEAPGGTELIQTPLASSTDHQTP [HDAC6]: the protein stability index under setting [1] is 5.49 ± 0.4 and the protein stability index under setting [2] stood at 5.51 ± 0.34.
In the same order, the values of ESAAFSQGSRSGVSGGSRSLNMSR [PHTF1] are 4.44 ± 0.17 and 4.5 ± 0.23.
In the same order, the values of DIAAGEELLYDYGDRSKASIEAHP [KMT5A] are 5.09 ± 0.2 and 5.28 ± 0.19.
For GMEGLLGTLVQLLGSDDINVVTCA [CTNNB1] the same measures were 2.34 ± 0.55 and 2.46 ± 0.15.
As to LATLEGDDPSLRKTHSSPALSQGH [PSD2], the protein stability index under setting [1] came to 4.44 ± 0.14 and the protein stability index under setting [2] was 4.6 ± 0.16.
In the same order, the values of LRQAQQNMDPKAAEEEEEEEEEVD [CCND1] are 5.64 ± 0.35 and 5.56 ± 0.33.
In the same order, the values of RAAAQQRRSFLNAHHRSGAQVFPE [GNAS] are 3.53 ± 0.12 and 3.5 ± 0.23.
For CRFNQDPEAVDEDRSTEPDRLQVF [ATE1] the same measures were 4.54 ± 0.18 and 4.55 ± 0.2.
As for HIKFPIDYPYSPPTFRFLTKMWHP [UBE2R2], the protein stability index stood at 2.3 ± 0.32 under setting [1] and 2.24 ± 0.39 under setting [2].
In the same order, the values of TNPDLIIVCAQSSQSLWNRLSVLL [SMG5] are 2.59 ± 0.54 and 2.49 ± 0.64.
For EAFWAEWKDLTLSTRPEEGCSLHE [TCAP] the same measures were 3.98 ± 0.18 and 4 ± 0.2.
For EAQEEFLRVLGSMCQRLRSMQYNG [DFFB] the same measures were 2.27 ± 0.21 and 2.27 ± 0.21.
As for VTGHTNIVDFLTHHAQTSKTERIN [FEM1C], the protein stability index is, setting by setting: under setting [1], 3.45 ± 0.11; under setting [2], 3.54 ± 0.19.
With MGETKIIYHLDGQETPYLVKLPLP [DVL3], the protein stability index amounted to 2.2 ± 0.3 under setting [1] and 2.3 ± 0.23 under setting [2].
In the same order, the values of SDDSDEDEPCAISGKWTFQRDSKR [DLC1] are 5 ± 0.13 and 4.83 ± 0.069.
For the sequence QERQMLQALKFLPVPSAPVIDLAE [FSD1], the protein stability index runs as follows: under setting [1], 3.47 ± 0.31; under setting [2], 3.3 ± 0.25.
For EPIILPCSHNLCQACARNILVQTP [TRIM9] the same measures were 2.45 ± 0.18 and 2.68 ± 0.23.
For HSQFIGYPITLYLEKEREKEISDD [HSP90AB1] the same measures were 3.82 ± 0.082 and 3.9 ± 0.26.
